One molecule from patent publication US20150197542A1 (SAMSUNG ELECTRONICS, published 2015) can be followed below.

The test has as its target T1, human c-Met/Fc fusion protein (R&D Systems) (human, UniProt P08581 25-932).
T1 construct: Bought reagent; also called human c-Met/Fc protein; not shown: Fc part of the bought fusion
Put plainly: ELISA, human c-Met/Fc fusion protein coated at 2 µg/mL, hybridoma culture, anti-mouse IgG-HRP. The procedure: Human c-Met/Fc fusion protein was seeded in an amount of 50 μL (2 μg/mL)/well to microtiter plates and allowed to adhere to the surface of each well. The antibody that remained unbound was removed by washing.
The hybridoma cell culture obtained in Reference Example 1.1.2 was added in an amount of 50 μL to each well of the plates and incubated for 1 hour. The cells remaining unreacted were washed out with a sufficient amount of Tris-buffered saline and Tween 20 (TBST). Goat anti-mouse IgG-horseradish peroxidase (HRP) was added to the plates and incubated for 1 hour at room temperature. The plates were washed with a sufficient amount of TBST, followed by reacting the peroxidase with a substrate (OPD). Absorbance at 450 nm was measured on an ELISA reader.
(In general: In an ELISA, binding on a coated surface is turned into a signal by an enzyme label.)

T1 sequence (P08581 25-932 limits assumed): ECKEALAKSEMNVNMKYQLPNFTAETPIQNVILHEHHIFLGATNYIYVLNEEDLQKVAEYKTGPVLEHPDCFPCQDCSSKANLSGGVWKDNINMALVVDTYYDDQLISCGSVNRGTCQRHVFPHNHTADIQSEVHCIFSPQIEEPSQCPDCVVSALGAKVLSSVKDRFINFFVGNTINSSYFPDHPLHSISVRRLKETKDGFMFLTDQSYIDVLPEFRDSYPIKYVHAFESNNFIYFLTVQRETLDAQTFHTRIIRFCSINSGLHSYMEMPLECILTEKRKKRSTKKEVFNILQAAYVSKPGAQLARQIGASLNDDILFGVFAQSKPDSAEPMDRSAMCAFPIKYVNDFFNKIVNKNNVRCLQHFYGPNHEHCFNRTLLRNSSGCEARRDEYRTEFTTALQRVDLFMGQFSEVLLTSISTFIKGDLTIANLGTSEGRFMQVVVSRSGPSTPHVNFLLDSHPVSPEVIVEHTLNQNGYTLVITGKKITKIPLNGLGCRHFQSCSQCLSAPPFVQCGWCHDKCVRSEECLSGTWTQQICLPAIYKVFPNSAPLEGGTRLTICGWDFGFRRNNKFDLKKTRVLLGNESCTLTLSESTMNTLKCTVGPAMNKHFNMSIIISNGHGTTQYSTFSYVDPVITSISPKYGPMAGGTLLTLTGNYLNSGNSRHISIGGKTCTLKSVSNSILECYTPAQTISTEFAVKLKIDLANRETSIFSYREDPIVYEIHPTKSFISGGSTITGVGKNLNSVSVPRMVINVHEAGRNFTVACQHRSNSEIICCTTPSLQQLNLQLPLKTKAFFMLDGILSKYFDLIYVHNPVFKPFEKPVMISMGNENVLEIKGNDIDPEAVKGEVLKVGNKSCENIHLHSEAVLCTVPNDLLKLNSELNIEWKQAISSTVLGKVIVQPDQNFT

B1: AbF46, mouse monoclonal antibody to c-Met (hybridoma KCLRF-BP-00220) (antibody, V domains shown)
VH: EVKLVESGGGLVQPGGSLRLSCATSGFTFTDYYMSWVRQPPGKALEWLGFIRNKANGYTTEYSASVKGRFTISRDNSQSILYLQMDTLRAEDSATYYCARDNWFAYWGQGTLVTVSA
VL: DILMTQSPSSLTVSAGEKVTMSCKSSQSLLASGNQNNYLAWHQQKPGRSPKMLIIWASTRVSGVPDRFIGSGSGTDFTLTINSVQAEDLAVYYCQQSYSAPLTFGAGTKLELK
notes: Tested as hybridoma culture supernatant in the screening ELISA; also called mouse antibody AbF46
As for B1, the binding result is recorded as “binds”.
